This note sets out measurements from the Human Domainome abundance scans (Beltran et al. 2025).

± gives the uncertainty stated by the source.

This series is described as follows: abundance fitness (aPCA) (normalised: wild type 0, dead -1); higher = more abundant; growth selection in yeast, the domain comes from the species named. The following applies: Homo sapiens.
“Scaffold attachment factor B1 K45V, Q15424”: the abundance fitness is -0.929 ± 0.46.
Then “Scaffold attachment factor B1 K54A, Q15424”, with -0.181 ± 0.061.
Then “Scaffold attachment factor B1 K54C, Q15424”, with -0.361 ± 0.063; and “Scaffold attachment factor B1 K54D, Q15424”, with -0.329 ± 0.075; and “Scaffold attachment factor B1 K54E, Q15424”, with -0.207 ± 0.079.
“Scaffold attachment factor B1 K54F, Q15424” gave an abundance fitness of -0.249 ± 0.062.
“Scaffold attachment factor B1 K54G, Q15424” registered an abundance fitness of -0.234 ± 0.05.
Substance “Scaffold attachment factor B1 K54H, Q15424” came in with an abundance fitness of -0.401 ± 0.11.
As for “Scaffold attachment factor B1 K54I, Q15424”, the abundance fitness was -0.271 ± 0.077.
In the case of “Scaffold attachment factor B1 K54L, Q15424” it was -0.28 ± 0.048; in that of “Scaffold attachment factor B1 K54M, Q15424”, -0.443 ± 0.087; in that of “Scaffold attachment factor B1 K54N, Q15424”, -0.444 ± 0.075.
In the case of “Scaffold attachment factor B1 K54P, Q15424”, the abundance fitness was -0.25 ± 0.082.
In the case of “Scaffold attachment factor B1 K54Q, Q15424”, the abundance fitness was -0.115 ± 0.066.
In the case of “Scaffold attachment factor B1 K54R, Q15424” it was -0.063 ± 0.047; in that of “Scaffold attachment factor B1 K54S, Q15424”, -0.259 ± 0.072.
For the substance “Scaffold attachment factor B1 K54T, Q15424”, the abundance fitness was -0.189 ± 0.057.
Then “Scaffold attachment factor B1 K54V, Q15424”, with -0.221 ± 0.049.
In turn, “Scaffold attachment factor B1 K54W, Q15424” displayed an abundance fitness of -0.255 ± 0.056.
In the case of “Scaffold attachment factor B1 K54Y, Q15424” it was -0.157 ± 0.059; in that of “Scaffold attachment factor B1 K62A, Q15424”, -0.073 ± 0.052; in that of “Scaffold attachment factor B1 K62C, Q15424”, -0.27 ± 0.057.
Then “Scaffold attachment factor B1 K62D, Q15424”, with -0.403 ± 0.089; and “Scaffold attachment factor B1 K62E, Q15424”, with -0.287 ± 0.053; and “Scaffold attachment factor B1 K62F, Q15424”, with -0.366 ± 0.078.
Then “Scaffold attachment factor B1 K62G, Q15424”, with -0.191 ± 0.048; and “Scaffold attachment factor B1 K62H, Q15424”, with -0.211 ± 0.066.
Regarding “Scaffold attachment factor B1 K62I, Q15424”, the abundance fitness was -0.336 ± 0.078.
Then “Scaffold attachment factor B1 K62L, Q15424”, with -0.204 ± 0.054; and “Scaffold attachment factor B1 K62M, Q15424”, with -0.254 ± 0.078; and “Scaffold attachment factor B1 K62N, Q15424”, with -0.231 ± 0.096.
In turn, “Scaffold attachment factor B1 K62P, Q15424” registered an abundance fitness of -0.728 ± 0.065.
In the case of “Scaffold attachment factor B1 K62R, Q15424” it was -0.089 ± 0.048; in that of “Scaffold attachment factor B1 K62T, Q15424”, -0.212 ± 0.072; in that of “Scaffold attachment factor B1 K62V, Q15424”, -0.246 ± 0.052.
Then “Scaffold attachment factor B1 K62W, Q15424”, with -0.366 ± 0.065; and “Scaffold attachment factor B1 K62Y, Q15424”, with -0.285 ± 0.087; and “Scaffold attachment factor B1 K63A, Q15424”, with -0.202 ± 0.053.
